Results taken from PMC5123862.
pKd, pKi: −log10 of the molar value. Blank lines part the entries; values can stand above or below the substance they belong to.

Legend:
[1] = system: DNA polymerase eta (pol η);Cy5-PCNA (human;human); assay: FRET; conditions: pol η titrated onto Cy5-PCNA loaded by RFC (100 nM each), 1 mM ATP; 3'-biotin (Neutravidin bound); 25 mM TrisOAc pH 7.7, 10 mM Mg(OAc)2, 125 mM KOAc, 0.1 mg/ml BSA, 1 mM DTT, ionic strength adjusted to 200 mM with KOAc, room temperature
[2] = system: DNA polymerase delta (pol δ), exonuclease-deficient;Cy5-PCNA (human;human); assay: FRET; conditions: 3'-biotin (Neutravidin bound); 25 mM TrisOAc pH 7.7, 10 mM Mg(OAc)2, 125 mM KOAc, 0.1 mg/ml BSA, 1 mM DTT, ionic strength adjusted to 200 mM with KOAc, room temperature; cited from earlier work
[3] = molecular target: Cy3-pol η (human DNA polymerase eta, full length, N-terminally labeled with Cy3) (human) (UniProt Q9Y253); assay: FRET or BRET; competitive inhibition: pre-assembled Cy3-Pol η•Cy5-PCNA complex (200 nM Cy3-Pol η, 20 nM Cy5-PCNA) titrated with unlabeled competitor (PCNA, (Ub)3-PCNA or pol η, 0-5 μM); dose-response model, Ki from IC50 by the Munson-Rodbard solution; room temperature; replication assay buffer, ionic strength 200 mM
Cy3-pol η (human DNA polymerase eta, full length, N-terminally labeled with Cy3) (human), sequence (Q9Y253 whole entry): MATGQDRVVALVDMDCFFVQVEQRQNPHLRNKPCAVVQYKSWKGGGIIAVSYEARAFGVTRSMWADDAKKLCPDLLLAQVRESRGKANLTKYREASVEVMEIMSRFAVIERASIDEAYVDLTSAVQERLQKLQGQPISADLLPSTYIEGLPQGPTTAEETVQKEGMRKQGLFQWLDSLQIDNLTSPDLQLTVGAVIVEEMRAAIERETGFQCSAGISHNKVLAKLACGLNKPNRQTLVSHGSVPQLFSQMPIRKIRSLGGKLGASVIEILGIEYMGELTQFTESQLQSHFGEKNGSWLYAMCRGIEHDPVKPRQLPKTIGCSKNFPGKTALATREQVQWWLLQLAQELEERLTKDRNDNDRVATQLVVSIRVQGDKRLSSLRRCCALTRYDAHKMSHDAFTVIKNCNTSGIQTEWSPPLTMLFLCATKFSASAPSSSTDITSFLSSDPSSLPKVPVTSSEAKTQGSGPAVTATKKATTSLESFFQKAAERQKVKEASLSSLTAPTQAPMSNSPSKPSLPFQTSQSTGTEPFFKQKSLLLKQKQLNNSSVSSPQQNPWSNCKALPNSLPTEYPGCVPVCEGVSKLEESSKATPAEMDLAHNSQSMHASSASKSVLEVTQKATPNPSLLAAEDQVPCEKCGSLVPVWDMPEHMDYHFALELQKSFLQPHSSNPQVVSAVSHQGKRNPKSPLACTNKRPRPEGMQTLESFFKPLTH

[4] = molecular target: Wild-type PCNA (human) (human) (UniProt P12004)
Wild-type PCNA (human) (human), sequence (P12004 whole entry): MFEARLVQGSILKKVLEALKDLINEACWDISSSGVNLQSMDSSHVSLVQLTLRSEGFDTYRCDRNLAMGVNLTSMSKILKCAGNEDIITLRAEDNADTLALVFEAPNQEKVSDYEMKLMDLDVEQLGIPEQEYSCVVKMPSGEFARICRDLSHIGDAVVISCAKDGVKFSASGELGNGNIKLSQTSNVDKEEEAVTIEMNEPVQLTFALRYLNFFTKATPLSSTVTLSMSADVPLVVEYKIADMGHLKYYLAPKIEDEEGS

[5] = system: DNA polymerase delta (pol δ), exonuclease-deficient (human); assay: fluorescence anisotropy; conditions: 10 mM Mg2+; estimated from partial binding curve, single measurements; 25 mM TrisOAc pH 7.7, 10 mM Mg(OAc)2, 125 mM KOAc, 0.1 mg/ml BSA, 1 mM DTT, ionic strength adjusted to 200 mM with KOAc, room temperature
[6] = system: DNA polymerase eta (pol η) (human); assay: fluorescence anisotropy; conditions: 10 mM Mg2+; 25 mM TrisOAc pH 7.7, 10 mM Mg(OAc)2, 125 mM KOAc, 0.1 mg/ml BSA, 1 mM DTT, ionic strength adjusted to 200 mM with KOAc, room temperature

Substance: Forked Cy3-P/T DNA
pKd [1]: 7.55
pKd [2]: > 8.00

pKi [3]: 6.92
Substance: Monoubiquitinated PCNA ((Ub)3-PCNA): a single ubiquitin moiety on K164 of each monomer within a homotrimeric clamp ring (from UniProt P12004 1-261; P0CG48 1-76) (complex)

probability of insertion (Pi) of pol δ in single turnover primer extension on TT P/T DNA in the presence of PCNA (plateau i = 15 to i = 25); no DNA synthesis without PCNA [4]: 0.999
Substance: Exonuclease-deficient human DNA polymerase delta (D402A in the catalytic POLD1 subunit) (from UniProt P28340 1-1107) (complex)

Substance: FLUOR-P/T DNA
pKd [5]: 6.27
pKd [6]: 7.53
